The results in this text go back to US20260232802A1 (published 2026).

Assay [1] concerns the target T1, Survivin (BIRC5) peptide on HLA-A*02:01 (human).
T1 peptide: LTLGEFLKL
As to the kind of experiment: killing. On the procedure: (A) Survivin-specific transgenic T cells were co-cultured with Survivin⁺ primary AML blasts expressing (target blasts) or not (control blasts) the HLA-A0201⁺ allele in 1:1 effector to target ratio. After 24 hours, elimination index was calculated as [1-(number of alive blasts cultured with edited T cells/number of alive blasts alone)]. (B) Survivin-specific transgenic T cells were co-cultured with Survivin⁺ primary AML blasts expressing (target blasts, upper) or not (control blasts, lower) the HLA-A0201⁺ allele in 1:1 effector to target ratio. Killing is represented as area covered (μm²) by cells undergoing apoptosis (caspase 3/7 activation) overtime. […] Data are presented as means±SD. ****P<0.0001, by Student t-test (A) or two-way ANOVA (B).
For killing assay cells were plated and kept at 37° C. and 5% CO2 after the addition of anti-CD28 monoclonal antibodies (1 μg/ml; BD biosciences) for 72 hours in case of co-culture with cell lines, and for 24 hours for co-cultures with primary AML blasts. […] Viable target cells were counted using counting beads (Flow-count fluorospheres, Beckman Coulter), according to manufacturer's instructions. Elimination index was calculated according to the formula: [1-(number of alive target cells in culture with effector T cells/number of alive target cells in control culture)]. […] Data were analyzed by FlowJo software version 10 (BD).

In assay [2] the target is T2, Survivin (BIRC5), modified form of the peptide peptide on HLA-A*02:01 (human).
T2 peptide: LMLGEFLKL
As to the kind of experiment: multimer staining.

The target of assay [3] is T3, Human Telomerase Reverse Transcriptase (hTERT) peptide on HLA-A*03:01 (human).
T3 peptide: SVLNYERARR
As to the kind of experiment: multimer staining.

B1: Survivin TCR (TCR, V domains shown)
Valpha: SQKIEQNSEALNIQEGKTATLTCNYTNYSPAYLQWYRQDPGRGPVFLLLIRENEKEKRKERLKVTFDTTLKQSLFHITASQPADSATYLCALDRMDSSYKLIFGSGTRLLVRP
Vbeta: NAGVTQTPKFQVLKTGQSMTLQCAQDMNHEYMSWYRQDPGMGLRLIHYSVGAGITDQGEVPNGYNVSRSTTEDFPLRLLSAAPSQTSVYFCASSYDQDGEAFFGQGTRLTVV
B1: the binding result in assay [1] and in assay [2] was “recognises” throughout.

B2: hTERT #4 (TCR, V domains shown)
Valpha: GIQVEQSPPDLILQEGANSTLRCNFSDSVNNLQWFHQNPWGQLINLFYIPSGTKQNGRLSATTVATERYSLLYISSSQTTDSGVYFCAVSHGRGGATNKLIFGTGTLLAVQP
Vbeta: NAGVTQTPKFQVLKTGQSMTLQCAQDMNHNSMYWYRQDPGMGLRLIYYSASEGTTDKGEVPNGYNVSRLNKREFSLRLESAAPSQTSVYFCASDRVLGYEQYFGPGTRLTVT
For the molecule B2, the binding result in assay [3] is given as “recognises”.

B3: hTERT #2 (TCR, V domains shown)
Valpha: GQNIDQPTEMTATEGAIVQINCTYQTSGFNGLFWYQQHAGEAPTFLSYNVLDGLEEKGRFSSFLSRSKGYSYLLLKELQMKDSASYLCAVSRPNSGYSTLTFGKGTMLLVSP
Vbeta: AAGVIQSPRHLIKEKRETATLKCYPIPRHDTVYWYQQGPGQDPQFLISFYEKMQSDKGSIPDRFSAQQFSDYHSELNMSSLELGDSALYFCASSVRTPSGQETQYFGPGTRLLVL
As for B3, in assay [3], the binding result is given as “recognises”.

B4: hTERT #1 (TCR, V domains shown)
Valpha: GENVEQHPSTLSVQEGDSAVIKCTYSDSASNYFPWYKQELGKRPQLIIDIRSNVGEKKDQRIAVTLNKTAKHFSLHITETQPEDSAVYFCADWVDMRFGAGTRLTVKP
Vbeta: GAVVSQHPSWVICKSGTSVKIECRSLDFQATTMFWYRQFPKQSLMLMATSNEGSKATYEQGVEKDKFLINHASLTLSTLTVTSAHPEDSSFYICSAPLDRGSNQPQHFGDGTRLSIL
In the case of B4, the binding result in assay [3] is given as “recognises”.

B5: hTERT #3 (TCR, V domains shown)
Valpha: KDQVFQPSTVASSEGAVVEIFCNHSVSNAYNFFWYLHFPGCAPRLLVKGSKPSQQGRYNMTYERFSSSLLILQVREADAAVYYCAVETGGGATNKLIFGTGTLLAVQP
Vbeta: NAGVTQTPKFQVLKTGQSMTLQCAQDMNHNSMYWYRQDPGMGLRLIYYSASEGTTDKGEVPNGYNVSRLNKREFSLRLESAAPSQTSVYFCASSEFWLTQETQYFGPGTRLLVL
For B5, the binding result in assay [3] was “recognises”.
